Measured values taken from patent US20180155451A1 (published 2018).
Positions count from the first letter of the chain named. Numbers in names are those of the source. Values belong to the binder of their own block, whether it stands above or below them.

Legend:
[1] = target: T1, FcgRIIa R extracellular domain with C-terminal His tag (human, UniProt P12318 34-217); assay: SPR (Biacore) KD ratio against the template H240-Kn061/H240-Hl071/L73-k0
T1 construct: extracellular domain; also called FcγRIIa R; FcγRIIa type R; not shown: His tag attached to the C terminus
T1 sequence (looked up): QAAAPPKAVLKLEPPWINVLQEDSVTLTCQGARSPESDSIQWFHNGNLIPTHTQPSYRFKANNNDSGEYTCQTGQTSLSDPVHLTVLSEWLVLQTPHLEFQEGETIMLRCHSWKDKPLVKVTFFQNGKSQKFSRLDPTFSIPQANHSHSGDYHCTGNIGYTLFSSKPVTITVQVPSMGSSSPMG
Description: (§1) The antibodies were assessed for the binding to each FcgR. […] The resultant value was defined as relative KD, and used as an assessment indicator.
(§2) Analysis of interaction between obj ective antibody and the FcγR was carried out using Biacore T100 (GE Healthcare), Biacore T200, Biacore A100, and Biacore 4000. HBS-EP+ (GE Healthcare) was used as the running buffer, and the measurement temperature was set to 25° C. Chips produced by immobilizing the antigen peptide by the amine coupling method to a Series S sensor Chip CM5 (GE Healthcare), chips produced by allowing preliminarily biotinylated antigen peptides to interact with and immobilize onto a Series S Sensor Chip SA (certified) (GE Healthcare), chips produced by immobilizing Protein L (ACTIGEN, BioVision) to Series S Sencor Chip CM5 (GE Healthcare), or chips produced by immobilizing Protein A/G (Thermo Scientific) to Series S Sencor Chip CM5 (GE Healthcare) were used. Antibodies of interest were captured onto these chips, and allowed to interact to each FcγR diluted with running buffer.

[2] = target: T2, FcgRIIa H extracellular domain with C-terminal His tag (human, UniProt P12318 34-217); assay: as above
T2 construct: extracellular domain; also called FcγRIIa H; FcγRIIa type H; not shown: His tag attached to the C terminus
T2 sequence (looked up): T1 sequence (looked up) with R134H
Description: as §1, §2

[3] = target: T3, FcgRIIb extracellular domain with C-terminal His tag (human, UniProt P31994 43-217); assay: as above
T3 construct: extracellular domain; also called FcγRIIb; not shown: His tag attached to the C terminus
T3 sequence (looked up): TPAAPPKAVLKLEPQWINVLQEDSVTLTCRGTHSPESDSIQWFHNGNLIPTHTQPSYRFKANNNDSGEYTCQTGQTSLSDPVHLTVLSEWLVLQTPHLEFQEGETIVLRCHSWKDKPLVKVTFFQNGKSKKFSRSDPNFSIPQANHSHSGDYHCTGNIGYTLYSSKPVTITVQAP
Description: as §1, §2

[4] = target: T4, FcgRIIIa F extracellular domain with C-terminal His tag (human, UniProt P08637 17-208); assay: as above
T4 construct: extracellular domain; also called FcγRIIIa F; FcγRIIIa (F158); not shown: His tag attached to the C terminus
T4 sequence (P08637 17-208): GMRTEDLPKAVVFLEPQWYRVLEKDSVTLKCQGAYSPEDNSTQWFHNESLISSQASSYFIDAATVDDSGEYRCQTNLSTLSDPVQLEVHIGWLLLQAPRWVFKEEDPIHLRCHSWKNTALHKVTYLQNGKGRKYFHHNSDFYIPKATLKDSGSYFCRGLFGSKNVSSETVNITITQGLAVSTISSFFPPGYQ
Description: as §1, §2

[5] = target: T5, FcgRIIIa V extracellular domain with C-terminal His tag (human, UniProt P08637 17-208); assay: as above
T5 construct: extracellular domain; also called FcγRIIIa V; FcγRIIIa (V158); not shown: His tag attached to the C terminus
T5 sequence (P08637 17-208 F176V): as the sequence (P08637 17-208) above, with F160V counted along it
Description: as §1, §2

FcgRIa = target: T6, FcgRIa (human, UniProt P12314 16-292); assay: SPR (Biacore), antibody captured on chip, FcgR extracellular domain as analyte
T6 construct: extracellular domain; Expressed in FreeStyle293 cells and purified; used as analyte in Biacore; also called FcγRIa; FcγRI; not shown: His tag attached to the C terminus
T6 sequence (P12314 16-292): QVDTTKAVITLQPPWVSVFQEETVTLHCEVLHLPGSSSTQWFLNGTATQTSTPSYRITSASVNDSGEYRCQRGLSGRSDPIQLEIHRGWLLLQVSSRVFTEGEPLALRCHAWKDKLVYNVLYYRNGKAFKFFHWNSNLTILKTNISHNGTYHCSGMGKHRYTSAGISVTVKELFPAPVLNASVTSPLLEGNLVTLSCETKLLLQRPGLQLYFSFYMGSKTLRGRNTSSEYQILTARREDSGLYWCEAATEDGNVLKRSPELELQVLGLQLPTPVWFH
Description: (§3) Specifically, H240-Kn120 (SEQ ID NO: 99) resulting from introduction of S239M into H240-Kn067 and H240-Kn126 (SEQ ID NO: 100) resulting from introduction of Y235Q into H240-Kn120 were prepared according to the method described in Reference Example 1. […] Those described above were assayed for the binding to each FcgR according to the method described in Reference Example 8.
as §2, with “buffer. To regenerate and repeatedly use the chip, the antibodies captured onto the chip were washed off by reacting 10 mM glycine-HCl, pH 1.5.” for “buffer.”

FcgRIIa R = target: T7, FcgRIIa R (human, UniProt P12318 34-217); assay: as above
T7 construct: extracellular domain; also called FcγRIIa R; FcγRIIa type R; not shown: His tag attached to the C terminus
T7 sequence (looked up): T1 sequence (looked up)
Description: as §3
as §2, with “buffer. To regenerate and repeatedly use the chip, the antibodies captured onto the chip were washed off by reacting 10 mM glycine-HCl, pH 1.5.” for “buffer.”

FcgRIIa H = target: T8, FcgRIIa H (human, UniProt P12318 34-217); assay: as above
T8 construct: extracellular domain; also called FcγRIIa H; FcγRIIa type H; not shown: His tag attached to the C terminus
T8 sequence (looked up): T1 sequence (looked up) with R134H
Description: as §3
as §2, with “buffer. To regenerate and repeatedly use the chip, the antibodies captured onto the chip were washed off by reacting 10 mM glycine-HCl, pH 1.5.” for “buffer.”

FcgRIIb = target: T9, FcgRIIb (human, UniProt P31994 43-217); assay: as above
T9 construct: extracellular domain; Expressed in FreeStyle293 cells and purified; used as analyte in Biacore; also called FcγRIIb; CD32B; not shown: His tag attached to the C terminus
T9 sequence (looked up): T3 sequence (looked up)
Description: as §3
as §2, with “buffer. To regenerate and repeatedly use the chip, the antibodies captured onto the chip were washed off by reacting 10 mM glycine-HCl, pH 1.5.” for “buffer.”

FcgRIIIa F = target: T10, FcgRIIIa F (human, UniProt P08637 17-208); assay: as above
T10 construct: extracellular domain; also called FcγRIIIa F; not shown: His tag attached to the C terminus
T10 sequence (P08637 17-208): as the sequence (P08637 17-208) above
Description: as §3
as §2, with “buffer. To regenerate and repeatedly use the chip, the antibodies captured onto the chip were washed off by reacting 10 mM glycine-HCl, pH 1.5.” for “buffer.”

FcgRIIIa V = target: T11, FcgRIIIa V (human, UniProt P08637 17-208); assay: as above
T11 construct: extracellular domain; also called FcγRIIIa V; not shown: His tag attached to the C terminus
T11 sequence (P08637 17-208 F176V limits assumed): as the sequence (P08637 17-208) above, with F160V counted along it
Description: as §3
as §2, with “buffer. To regenerate and repeatedly use the chip, the antibodies captured onto the chip were washed off by reacting 10 mM glycine-HCl, pH 1.5.” for “buffer.”

relative KD (KD of H240-Kn061/H240-Hl071/L73-k0 / KD of variant) [1]: 1.1
relative KD (KD of H240-Kn061/H240-Hl071/L73-k0 / KD of variant) [2]: 0.9
relative KD (KD of H240-Kn061/H240-Hl071/L73-k0 / KD of variant) [3]: 0.9
relative KD (KD of H240-Kn061/H240-Hl071/L73-k0 / KD of variant) [4]: 1.4
relative KD (KD of H240-Kn061/H240-Hl071/L73-k0 / KD of variant) [5]: 1
B1: H240-Kn061/H240-Hl071/L73-k0 variant with V240F introduced into H240-Hl071 (antibody, human IgG1, kappa)
heavy 1: QDQLVQSGAEVKKPGASVKVSCKASGFNIKDTYIQWVRQAPGQGLEWMGRIDPLRKQTKYREKFEGRVTITADTSTNTAYMELSSLRSEDTAVYYCVRSGREFDYWGQGTLVTVSSASTKGPSVFPLAPSSKSTSGGTAALGCLVKDYFPEPVTVSWNSGALTSGVHTFPAVLQSSGLYSLSSVVTVPSSSLGTQTYICNVNHKPSNTKVDKKVEPKSCDKTHTCPPCPAPEYYWGPSVFLFPPKPKDTLMISRTPEVTCVVVDVSDEDPEVKFNWYVDGVEVHNAKTKPREEQYNATYRVVSVLTVLHQDWLNGKEYKCKVSNKALPAPIEKTISKAKGQPREPQVCTLPPSRDELTKNQVSLWCLVKGFYPSDIAVEWESNGQPENNYKTTPPVLDSDGSFFLYSKLTVDKSRWQQGNVFSCSVMHEALHNHYTQKSLSLSP
heavy 2: QDQLVQSGAEVKKPGASVKVSCKASGFNIKDTYIQWVRQAPGQGLEWMGRIDPLRKQTKYREKFEGRVTITADTSTNTAYMELSSLRSEDTAVYYCVRSGREFDYWGQGTLVTVSSASTKGPSVFPLAPSSKSTSGGTAALGCLVKDYFPEPVTVSWNSGALTSGVHTFPAVLQSSGLYSLSSVVTVPSSSLGTQTYICNVNHKPSNTKVDKKVEPKSCDKTHTCPPCPAPELLGGPSFFLFPPKPKDTLMISRTPEVTCVVVDVSHEDPEVKFNWYVDGVEVHNAKTKPREEQYNSTYRVVSVLTVLHQDWLNGKEYKCKVSNDALPMPIEETISKAKGQPREPQVYTLPPSRCELTKNQVSLSCAVKGFYPSDIAVEWESNGQPENNYKTTPPVLDSDGSFFLVSKLTVDKSRWQQGNVFSCSVMHEALHNHYTQKSLSLSP
light: DIQMTQSPSSLSASVGDRVTITCRASQDIHKYIAWYQQKPGQAPRLLIQYTSTLQPGVPSRFSGSGSGTDYTFTISSLQPEDIATYYCLQYEQLRTFGGGTKVEIKRTVAAPSVFIFPPSDEQLKSGTASVVCLLNNFYPREAKVQWKVDNALQSGNSQESVTEQDSKDSTYSLSSTLTLSKADYEKHKVYACEVTHQGLSSPVTKSFNRGEC
notes: Point variant made with H240-Kn061/H240-Hl071/L73-k0 as template; position by EU numbering; also called H240-Hl071 V240F

Kd (FcgRIa): 0.098 nM
Kd (FcgRIIa R): 29 nM
Kd (FcgRIIa H): 46 nM
Kd (FcgRIIb): 380 nM
Kd (FcgRIIIa F): 21 nM
Kd (FcgRIIIa V): 6.8 nM
B2: H240-Kn037/H240-Hl036/L73-k0 (antibody, human IgG1, kappa)
heavy 1: B1 heavy 1 with Y233L, Y234L, W235A, S238D, D267H, A297S, I331E
heavy 2: B1 heavy 2 with G235A, S238D, F239V, D325K, M329A, I331E, E333K
light: B1 light
notes: this is a derivation

Kd (FcgRIa): 0.4 nM
Kd (FcgRIIa R): 76 nM
Kd (FcgRIIa H): 170 nM
Kd (FcgRIIb): 520 nM
Kd (FcgRIIIa F): 3.7 nM
Kd (FcgRIIIa V): 0.64 nM
B3: H240-Kn126/H240-Hl068/L73-k0 (antibody, human IgG1, kappa)
heavy 1: B1 heavy 1 with Y234Q, S238M, A326D
heavy 2: B1 heavy 2 with F239V, D269E, M329K
light: B1 light
notes: Heterodimerized anti-EREG IgG1: Kn126 is H240-Kn120 with Y235Q
